According to publication PMC6393702:

T1: His-Vfr (UniProt P55222 1-214)
T1 sequence: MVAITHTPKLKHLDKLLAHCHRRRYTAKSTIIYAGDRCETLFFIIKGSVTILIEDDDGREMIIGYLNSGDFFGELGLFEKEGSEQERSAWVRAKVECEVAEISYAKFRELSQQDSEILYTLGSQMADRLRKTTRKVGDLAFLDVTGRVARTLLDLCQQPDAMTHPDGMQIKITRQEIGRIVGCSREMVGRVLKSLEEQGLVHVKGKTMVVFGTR

B1: Vfr CRE probe (dsDNA)
DNA 1: TCCACGACAATGTGCCTCGCTTGGAAGCTCACGCTCCTCACACAGACGAAAAC
DNA 2: GTTTTCGTCTGTGTGAGGAGCGTGAGCTTCCAAGCGAGGCACATTGTCGTGGA
B2: Vfr CRE-Δ probe (dsDNA)
DNA 1: TCCACGACAACCCACCTCGCTTGGAAGCTCACGCTCCTCACACAGACGAAAAC
DNA 2: GTTTTCGTCTGTGTGAGGAGCGTGAGCTTCCAAGCGAGGTGGGTTGTCGTGGA

Target: T1, His-Vfr
Assay: EMSA

| Binder | binding result |
| --- | --- |
| B1 | binds |
| B2 | no binding |
